{"source": "patent US9199028B2", "about": "“Use of entrained neutrophils to treat metastatic and micrometastatic disease in at risk patients” (MEMORIAL SLOAN-KETTERING CANCER CENTER, priority 2010, dated 2015)", "test_system": "4T1 cells", "experiment": "In vitro killing assay: naïve mouse neutrophils co-cultured with luciferase labelled 4T1 cells in the presence of chemokines", "type": "cell-based", "details": "naïve mouse neutrophils co-cultured with 4T1 cells, chemokine 20 ng/ml, overnight", "from_the_text": "Antibodies used for immunohistochemistry—MMP9, F4/80 and CCR2 (all from AbCam), Myeloperoxidase (Dako), Ly-6G and Cd11b (both from BD), and Cleaved Caspase 3 (Cell signalling). Antibodies used for western blotting—Actin (Sigma), CCL2 (AbCam) and CCL5 (R&D) p-SMAD2 (cell signalling). Antibodies used for FACS analysis FITC-Ly-6G, FITC-Cd11b, FITC-F4/80, FITC-Cd34 and FITC-c-Kit (all from BD) and VEGFR1-AP (R&D). Neutrophil Depletion Neutrophil depletion was achieved using daily IP injections of 12.5 μg Rat anti-Gr-1 antibody (BD) or Rat anti-Ly-6G antibody (BD) starting on day 3 post tumour engraftment. Starting on day 14, neutrophil depleting antibodies were administered twice daily. Control mice were injected with […] Rat isotype control (BD). Neutrophil depletion was monitored by manual blood differentials and FACS analysis. Flow Cytometry Peripheral blood was collected into EDTA-coated tubes, washed and resuspended in FACS buffer solution (PBS, 2% heat-inactivated FCS, 5 mM EDTA, and 0.02% sodium azide). The samples were blocked with […] and then incubated with fluorophore-conjugated antibodies. Erythrocytes were then lysed with FACS lysing solution (BD Biosciences) and the cell suspensions were analyzed on a FACSCalibur (BD Biosciences). Colony Formation Assay Female nude mice were orthotopically injected with 5×10^6 puromicin resistant 4T1 cells. On days 7 and 14 post tumour engraftment the mice were sacrificed and perfused with PBS. The lungs and livers were removed, washed with PBS and dissociated with Collagenase A (Roche). The single cell suspension was then plated onto puromicin containing media and selected for 14 day. Colonies were stained with Methylene-Blue and counted manually. Mouse Neutrophil Purification Whole blood was collected by cardiac puncture using heparinized (Sigma) syringe. The blood was diluted with 5 volumes of PBS containing 0.5% BSA and subjected to a discontinuous Histopaque (Sigma) gradient (1.077 and 1.119). Neutrophils were collected from the 1.077-1.119 interface, lymphocytes and monocytes collected from the plasma-1.077 interface. RBCs were eliminated by hypotonic lysis. The cells were washed twice with PBS-BSA and re-suspended in OptiMEM (Invitrogen) 0.5% FBS in a final concentration of 2×10^6 cells/ml. Neutrophil purity and viability were determined visually and were consistently >98%. Human Neutrophil Purification As part of a Memorial Sloan-Kettering Cancer Center institutionally approved protocol, blood samples (˜10 cc) were collected from healthy volunteers or from patients who were already having blood drawn for pre-surgical testing. Patients were consented accordingly as part of the approved protocol. […] Patients had either mastectomies or lumpectomies planned and had blood drawn prior to definitive surgical removal of their primary tumor or chemotherapy. Blood samples were transferred to the lab for analysis no more than 1 hour post-blood draw. Heparinzed blood (20 U/ml final) was mixed with an equal volume of Dextran 500 (3% in saline) and incubated 30 minutes at room temperature. The leukocyte-rich supernatant was layered on top of histopaque 1077 (Sigma) and centrifuged. Neutrophils, collected in the pellet fraction, were resuspended in 10 ml 0.2% NaCl for 30 seconds to remove contaminating erythrocytes. Isotonicity was restored by the addition of 10 ml 1.6% NaCl. Neutrophils were than washed three times in Hanks's balanced salt solution and resuspended in RPMI+FCS2%. In vitro Killing Assay Luciferase labelled cells (5,000/well) were plated on a 96-well, flat bottom white polystyrene tissue culture plate in OptiMEM 0.5% FBS (mouse neutrophils) or RPMI 2% FBS (human neutrophils). 4 hours later, purified neutrophils (100,000/well for mouse neutrophils and 5000 for human neutrophils) were added to the plated tumour cells and co-cultured overnight. […]", "note": "Entries after “also recorded” stand apart in the source; their conditions may differ."}
{"molecule": "rhG-CSF: recombinant methionyl human granulocyte colony-stimulating factor (Neupogen, Amgen) (protein, chains of the INN, looked up, N-terminal methionine) MTPLGPASSLPQSFLLKCLEQVRKIQGDGAALQEKLCATYKLCHPEELVLLGHSLGIPWAPLSSCPSQALQLAGCLSQLHSGLFLYQGLLQALEGISPELGPTLDTLQLDVADFATTIWQQMEELGMAPALQPTQGAMPAFASAFQRRAGGVLVASHLQSFLEVSYRVLRHLAQP", "values": [{"measurement": "neutrophil mediated killing of 4T1 cells (tumor cell viability by luciferase activity)", "result": "does not induce neutrophil mediated cell killing; also recorded: does not induce a cytotoxic neutrophil response; also recorded: did not induce a cytotoxic neutrophil response in vitro"}, {"measurement": "neutrophil mediated killing of 4T1 cells (tumor cell viability by luciferase activity)", "setting": "listed as G-CSF", "result": "no significant effect on tumor-cell viability"}]}
